Test results taken from patent US20230091510A1, “ANTIBODY DRUG CONJUGATES HAVING LINKERS COMPRISING HYDROPHILIC GROUPS” (priority 2019, published 2023).
Where a SMILES comes first, the peptide text is derived from it. [ ]: non-standard residue; d: D form. The star is where a group is joined. Dolaproine = CO[C@@H]([C@@H]1CCCN1)[C@@H](C)C(=O)O; Dil = CC[C@H](C)[C@H](NC)[C@@H](CC(=O)O)OC; X1 = C[C@@H](N*)[C@@H](O)c1ccccc1; NMeV = CN[C@H](C(=O)O)C(C)C

Key:
HCC1954 cells = experiment: CellTiter-Glo inhibition of cell proliferation and survival, HCC1954; type: cell-based, human; settings: HCC-1954 cell line
Procedure: (§1) The antibody drug conjugates were tested against four endogenous cancer cell lines and one isogenic cell line engineered to overexpress the target of interest. FaDu (ATCC No. HTB-43 cultured in Eagle's Minimum Essential Medium+10% FBS), HCC70 (ATCC No. CRL-2315 cultured in RPMI-1640+10% FBS), HCC1954 (ATCC No. CRL-2338 cultured in RPMI-1640+10% FBS) and HT-29 (ATCC No. HTB-38 cultured in McCoy's 5a Medium Modified+10% FBS). The HT-29 cell line was transfected to generate a stable HT-29 cell line expressing the exogenous protein of interest, P-cadherin, HT-29 PCAD+(cultured in McCoy's 5a Medium Modified+10% FBS).
(§2) The ability of the P-cadherin linker variant antibody drug conjugates to inhibit cell proliferation and survival was assessed using the Promega CellTiter-Glo® proliferation assay.
(§3) The cell lines were cultured in media that is optimal for their growth at 5% CO2, 37° C. in a tissue culture incubator. […] Cell viability and cell density were determined using a cell counter (Vi-Cell XR Cell Viability Analyzer, Beckman Coulter). […] Plates were incubated at 5% CO2, 37° C. for 5 days in a tissue culture incubator, after which cell viability was assessed through the addition of 25 μL of CellTiter Glo® (Promega, cat #G7573), a reagent which lyses cells and measures total adenosine triphosphate (ATP) content. […]

HT-29 cells = experiment: CellTiter-Glo inhibition of cell proliferation and survival, HT-29; type: cell-based, human; settings: HT-29 cell line
Procedure: as §1, §2, §3

HCC70 cells = experiment: CellTiter-Glo inhibition of cell proliferation and survival, HCC70; type: cell-based, human; settings: HCC-70 cell line
Procedure: as §1, §2, §3

FaDu cells = experiment: CellTiter-Glo inhibition of cell proliferation and survival, FaDu; type: cell-based, human; settings: FaDu cell line
Procedure: as §1, §2, §3

[1] = molecular target: P-cadherin, endogenous, on HCC70 human triple negative breast cancer cells (human, UniProt P22223 108-829); experiment: cell-based or functional assay
P-cadherin, endogenous, on HCC70 human triple negative breast cancer cells, sequence (P22223 108-829): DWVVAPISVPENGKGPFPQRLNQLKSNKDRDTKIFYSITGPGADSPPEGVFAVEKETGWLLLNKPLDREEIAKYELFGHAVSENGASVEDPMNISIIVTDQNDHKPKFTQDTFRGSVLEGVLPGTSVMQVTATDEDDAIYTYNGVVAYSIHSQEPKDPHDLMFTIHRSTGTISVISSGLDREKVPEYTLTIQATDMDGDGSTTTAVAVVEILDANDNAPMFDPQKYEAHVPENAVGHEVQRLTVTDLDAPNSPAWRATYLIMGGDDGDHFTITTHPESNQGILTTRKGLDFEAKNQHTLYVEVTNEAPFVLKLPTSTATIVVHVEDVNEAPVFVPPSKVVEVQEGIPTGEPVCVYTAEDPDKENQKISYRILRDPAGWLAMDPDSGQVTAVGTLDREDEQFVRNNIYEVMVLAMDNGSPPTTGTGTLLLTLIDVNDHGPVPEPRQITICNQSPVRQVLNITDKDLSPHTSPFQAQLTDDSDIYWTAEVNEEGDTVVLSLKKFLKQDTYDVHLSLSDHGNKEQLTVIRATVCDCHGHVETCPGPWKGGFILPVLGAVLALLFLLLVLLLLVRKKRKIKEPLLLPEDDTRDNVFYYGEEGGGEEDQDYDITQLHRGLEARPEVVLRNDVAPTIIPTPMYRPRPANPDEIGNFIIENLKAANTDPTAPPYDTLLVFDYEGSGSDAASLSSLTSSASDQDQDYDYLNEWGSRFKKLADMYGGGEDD

[2] = molecular target: P-cadherin, exogenous, stably expressed on HT-29 PCAD+ cells (UniProt P22223 108-829, limits assumed); experiment: cell-based or functional assay
P-cadherin, exogenous, stably expressed on HT-29 PCAD+ cells, sequence (P22223 108-829 limits assumed): as the sequence (P22223 108-829) above

[3] = value from an individual representative assay

Molecule | Amax (HCC1954 cells) | IC50 (HCC1954 cells; [3]) [nM] | Amax (HT-29 cells) | IC50 (HT-29 cells; [3]) [nM] | Amax (HCC70 cells) | IC50 (HCC70 cells; [3]) [nM] | Amax (FaDu cells) | IC50 (FaDu cells; [3]) [nM] | Amax, inhibition of cell proliferation and survival (CellTiter-Glo, 5 days), HCC70 cells [1] | IC50 (nM), inhibition of cell proliferation and survival (CellTiter-Glo, 5 days), HCC70 cells [1] [nM] | Amax, inhibition of cell proliferation and survival (CellTiter-Glo, 5 days), HT-29 PCAD+ cells [2] | IC50 (nM), inhibition of cell proliferation and survival (CellTiter-Glo, 5 days), HT-29 PCAD+ cells [2] [nM]
CC[C@H](C)[C@@H]([C@@H](CC(=O)N1CCC[C@H]1[C@H](OC)[C@@H](C)C(=O)N[C@H](C)[C@@H](O)c1ccccc1)OC)N(C)C(=O)[C@@H](NC(=O)[C@@H](NC)C(C)C)C(C)C [Free MMAE, monomethyl auristatin E, reference compound] (H-[NMeV]V[Dil][Dolaproine]-X1) | 65.26 | 0.056 | 102.30 | 0.012 | 49.22 | 0.022 | 108.80 | 0.032 |  |  |  | 
P-Cad mab2-L1-P1 (antibody, V domains shown, maleimide linker-drug L1-P1 on engineered Cys residues of the constant regions (positions not stated), DAR 3.8) VH: QVQLQQSGPGLVKPSQTLSLTCAISGDSVSSQSAAWNWIRQSPSRGLEWLGRIYYRSKWYNDYALSVKSRITINPDTSKNQFSLQLNSVTPEDTAVYYCARGEGYGREGFAIWGQGTLVTVSS VL: DIQMTQSPSSLSASVGDRVTITCRASQTISNTLAWYQQKPGKAPKLLIYAASNLQSGVPSRFSGSGSGTDFTLTISSLQPEDFATYYCQQYLSWFTFGQGTKVEIK |  |  |  |  |  |  |  |  | 65.1 | 0.237 | 90 | 0.077
P-Cad mab2-L5-P1 (antibody, V domains shown, maleimide linker-drug L5-P1 on engineered Cys residues of the constant regions (positions not stated), DAR 3.7) VH: QVQLQQSGPGLVKPSQTLSLTCAISGDSVSSQSAAWNWIRQSPSRGLEWLGRIYYRSKWYNDYALSVKSRITINPDTSKNQFSLQLNSVTPEDTAVYYCARGEGYGREGFAIWGQGTLVTVSS VL: DIQMTQSPSSLSASVGDRVTITCRASQTISNTLAWYQQKPGKAPKLLIYAASNLQSGVPSRFSGSGSGTDFTLTISSLQPEDFATYYCQQYLSWFTFGQGTKVEIK |  |  |  |  |  |  |  |  | 65.9 | 0.32 | 91.6 | 0.075
P-Cad mab2-L6-P1 (antibody, V domains shown, maleimide linker-drug L6-P1 on engineered Cys residues of the constant regions (positions not stated), DAR 3.8) VH: QVQLQQSGPGLVKPSQTLSLTCAISGDSVSSQSAAWNWIRQSPSRGLEWLGRIYYRSKWYNDYALSVKSRITINPDTSKNQFSLQLNSVTPEDTAVYYCARGEGYGREGFAIWGQGTLVTVSS VL: DIQMTQSPSSLSASVGDRVTITCRASQTISNTLAWYQQKPGKAPKLLIYAASNLQSGVPSRFSGSGSGTDFTLTISSLQPEDFATYYCQQYLSWFTFGQGTKVEIK |  |  |  |  |  |  |  |  | 80.2 | 0.209 | 102 | 0.069
P-Cad mab2-L2-P1 (antibody, V domains shown, maleimide linker-drug L2-P1 on engineered Cys residues of the constant regions (positions not stated), DAR 3.9) VH: QVQLQQSGPGLVKPSQTLSLTCAISGDSVSSQSAAWNWIRQSPSRGLEWLGRIYYRSKWYNDYALSVKSRITINPDTSKNQFSLQLNSVTPEDTAVYYCARGEGYGREGFAIWGQGTLVTVSS VL: DIQMTQSPSSLSASVGDRVTITCRASQTISNTLAWYQQKPGKAPKLLIYAASNLQSGVPSRFSGSGSGTDFTLTISSLQPEDFATYYCQQYLSWFTFGQGTKVEIK |  |  |  |  |  |  |  |  | 51 | 0.336 | 83.9 | 0.098
P-Cad mab2-L3-P1 (antibody, V domains shown, maleimide linker-drug L3-P1 on engineered Cys residues of the constant regions (positions not stated), DAR 4.0) VH: QVQLQQSGPGLVKPSQTLSLTCAISGDSVSSQSAAWNWIRQSPSRGLEWLGRIYYRSKWYNDYALSVKSRITINPDTSKNQFSLQLNSVTPEDTAVYYCARGEGYGREGFAIWGQGTLVTVSS VL: DIQMTQSPSSLSASVGDRVTITCRASQTISNTLAWYQQKPGKAPKLLIYAASNLQSGVPSRFSGSGSGTDFTLTISSLQPEDFATYYCQQYLSWFTFGQGTKVEIK |  |  |  |  |  |  |  |  | 105 | 1.35 | 86.8 | 0.083
P-Cad mab2-L4-P1 (antibody, V domains shown, maleimide linker-drug L4-P1 on engineered Cys residues of the constant regions (positions not stated), DAR 3.9) VH: QVQLQQSGPGLVKPSQTLSLTCAISGDSVSSQSAAWNWIRQSPSRGLEWLGRIYYRSKWYNDYALSVKSRITINPDTSKNQFSLQLNSVTPEDTAVYYCARGEGYGREGFAIWGQGTLVTVSS VL: DIQMTQSPSSLSASVGDRVTITCRASQTISNTLAWYQQKPGKAPKLLIYAASNLQSGVPSRFSGSGSGTDFTLTISSLQPEDFATYYCQQYLSWFTFGQGTKVEIK |  |  |  |  |  |  |  |  | 57.2 | 0.467 | 86.2 | 0.117
PCAD-mab2-L7-P2 (antibody, V domains shown, linker-drug L7-P2 (structure and conjugation not described in the filing)) VH: QVQLQQSGPGLVKPSQTLSLTCAISGDSVSSQSAAWNWIRQSPSRGLEWLGRIYYRSKWYNDYALSVKSRITINPDTSKNQFSLQLNSVTPEDTAVYYCARGEGYGREGFAIWGQGTLVTVSS VL: DIQMTQSPSSLSASVGDRVTITCRASQTISNTLAWYQQKPGKAPKLLIYAASNLQSGVPSRFSGSGSGTDFTLTISSLQPEDFATYYCQQYLSWFTFGQGTKVEIK |  |  |  |  |  |  |  |  | 171 | 0.004 |  | 
